Assay [1] concerns the target T1, human PD-1^ECD-hFc protein (Immunogen A) (human, UniProt Q15116 25-167).
T1 construct: Biotinylated for the Octet assay; also called PD-1-hFc; hPD-1^ECD-hFc; not shown: human IgG Fc fragment (hFc)
As to the kind of experiment: ELISA, coated human PD-1ECD-hFc; antibody 1 nM. As for the experimental part: (§1) 100 uL of the diluted recombinant proteins were added to each well of 96-well plate. The plates were sealed with plastic film and incubated at 4° C. overnight. The plates were washed twice with wash buffer (PBS+0.01% (v/v) Tween20), and incubated with blocking buffer (PBS+0.01% (v/v) Tween20+1% (w/w) BSA) at room temperature for 2 hours. The blocking buffer was aspirated away, and 100 uL of purified anti-PD-1 antibodies were added to each well and incubated for 2 hours at 37° C. The plates were washed three times with wash buffer (PBS+0.01% (v/v) Tween20). HRP-conjugated secondary antibody (Sigma) was added to each well and incubated for 2 hours at 37° C. After the plates were washed three times with wash buffer, 100 uL TMB substrate was added to each well and incubated for 30 minutes at room temperature. 100 uL stop solution (0.1N HCl) was added to each well to stop the reaction. The absorbance at 450 nm was measured with an ELISA plate reader (384plus SpectraMax, Molecular Devices).

In assay [2] the target is T1, human PD-1^ECD-hFc protein (Immunogen A). The experiment in a line: ELISA, coated human PD-1ECD-hFc; antibody 10 nM. Here is the method:
as §1
For orientation: ELISA stands for enzyme-linked immunosorbent assay.

For assay [3] the target is unchanged. As to the kind of experiment: ELISA, coated human PD-1ECD-hFc; antibody 0.1 nM. As for the experimental part: as §1
Assay [4] shares this target. The experiment in a line: ELISA, coated human PD-1ECD-hFc; antibody 100 nM. As for the experimental part:
as §1

Assay [5] shares this target. The experiment in a line: ELISA, coated human PD-1ECD-hFc; antibody 0.01 nM. As for the experimental part:
as §1

Assay [6] has as its target T2, full length human PD-1 on cells (human, UniProt Q15116 25-288).
T2 construct: Also used here for PD-1 on human T cells/PBMC; also called CHO-K1-hPD-1; hPD-1
As to the kind of experiment: flow cytometry, CHO-K1-hPD-1 cells; antibody 1 nM. The text has this:
(§2) CHO-K1 cells were stably transfected with pIRES plasmid containing the nucleic acid sequence encoding full length human PD-1 (see Example 2, step 2) to generate CHO-K1 cells stably expressing human PD-1 (herein referred to as CHO-K1-hPD-1 cells). Other CHO-K1 were stably transfected with pIRES plasmid containing the nucleic acid sequence encoding full length cyno PD-1 to generate CHO-K1 cells stably expressing cyno PD-1 (herein referred to as CHO-K1-cPD-1 cells). CHO-K1-hPD-1 and CHO-K1-cPD-1 cells were cultured and expanded in T-75 culture flasks to 90% confluence. The culture media was aspirated, and the cells were washed twice with HBSS (Hanks Balanced Salt Solution, Invitrogen). The cells were treated with enzyme-free cell dissociation solution (Versene solution, Invitrogen) and collected. The cells were then washed twice with HBSS, cell counts were determined, and cells were resuspended with HBSS at 2×10⁶ cells/mL. Goat serum was added to the cell suspension to a final concentration of 1%, and the cells were blocked for 30 minutes on ice and then washed twice with HBSS. The cells were collected after centrifugation and resuspended in FACS buffer (HBSS+1% BSA, v/v) at 2×10⁶ cells/mL. 100 uL of the cell suspension were then added to each well of 96-well plate. 100 uL of purified anti-PD-1 antibodies from Example 2 were added to each well of the 96-well plate and incubated for 2 hours on ice. […] The samples were washed three times with FACS buffer, and 100 uL fixation buffer (4% paraformaldehyde v/v) were added to each well and incubated for 10 minutes. The cells were then washed twice with FACS buffer and resuspended in 100 uL FACS buffer. The mean fluorescence intensity (MFI) was determined using FACS Calibur (BD), and the results are shown in FIGS. 7-8 and in Tables 10-11.
On the technique in general: Flow cytometry measures light scatter and fluorescence of single cells or particles in a stream.

Assay [7] concerns the target T1, human PD-1^ECD-hFc protein (Immunogen A). The experiment in a line: ELISA, coated human PD-1ECD-hFc; antibody 0.001 nM. Here is the method:
as §1

In assay [8] the target is T2, full length human PD-1 on cells. As to the kind of experiment: flow cytometry, CHO-K1-hPD-1 cells; antibody 10 nM.
Text: as §2

For assay [9], the target named is T1, human PD-1^ECD-hFc protein (Immunogen A). The experiment in a line: ELISA, coated human PD-1ECD-hFc; antibody 0.0001 nM. Here is the method: as §1
The target of assay [10] is T2, full length human PD-1 on cells. The experiment in a line: flow cytometry, CHO-K1-hPD-1 cells; antibody 0.1 nM.
Text: as §2

The target is the same in assay [11]. As to the kind of experiment: flow cytometry, CHO-K1-hPD-1 cells; antibody 100 nM.
Text: as §2

Assay [12] deals with T1, human PD-1^ECD-hFc protein (Immunogen A). The experiment in a line: ELISA, coated human PD-1ECD-hFc; antibody 0.00001 nM. As for the experimental part:
as §1

For assay [13], the target named is T2, full length human PD-1 on cells. As to the kind of experiment: flow cytometry, CHO-K1-hPD-1 cells; antibody 3.16 nM.
Text: as §2

Assay [14] shares this target. The experiment in a line: flow cytometry, CHO-K1-hPD-1 cells; antibody 31.6 nM.
Text: as §2

Assay [15] has the same target. As to the kind of experiment: flow cytometry, CHO-K1-hPD-1 cells; antibody 0.316 nM.
Text: as §2

Assay [16] has the same target. As to the kind of experiment: flow cytometry, CHO-K1-hPD-1 cells; antibody 0.0316 nM.
Text: as §2

Assay [17] concerns the target T3, CD28 (human, UniProt P10747 19-152). The experiment in a line: ELISA on coated protein (Table 9). Here is the method:
as §1

A further assay deals with T4, B7-1 (human, UniProt P33681 35-242).
T4 sequence (looked up): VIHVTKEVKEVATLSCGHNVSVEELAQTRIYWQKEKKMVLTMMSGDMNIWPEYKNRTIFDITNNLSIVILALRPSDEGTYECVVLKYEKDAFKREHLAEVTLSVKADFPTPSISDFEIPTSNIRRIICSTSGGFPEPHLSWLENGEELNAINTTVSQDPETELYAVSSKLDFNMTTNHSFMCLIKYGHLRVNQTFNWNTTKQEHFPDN
As to the kind of experiment: ELISA on coated protein (Table 9). Here is the method: as §1

In assay [18] the target is T5, ICOS (human, UniProt Q9Y6W8 21-140, limits assumed).
T5 sequence (looked up): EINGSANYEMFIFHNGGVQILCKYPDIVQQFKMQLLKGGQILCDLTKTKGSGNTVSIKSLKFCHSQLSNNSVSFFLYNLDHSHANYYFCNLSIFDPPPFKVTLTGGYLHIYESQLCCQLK
The experiment in a line: ELISA on coated protein (Table 9). Here is the method: as §1

Assay [19] addresses T6, CTLA4 (human, UniProt P16410 37-162, limits assumed).
T6 sequence (looked up): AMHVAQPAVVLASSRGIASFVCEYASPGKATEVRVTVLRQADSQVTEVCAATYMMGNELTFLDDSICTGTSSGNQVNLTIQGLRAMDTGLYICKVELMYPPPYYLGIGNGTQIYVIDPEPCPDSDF
The experiment in a line: ELISA on coated protein (Table 9). Here is the method: as §1

Assay [20] addresses T7, cyno PD-1^ECD-hFc protein (cyno monkey, UniProt B0LAJ3 25-167).
T7 construct: Prepared by the method for Immunogen A; also called Cyno Monkey PD-1^ECD-hFc; cyno monkey PD-1-hFc; not shown: human IgG Fc fragment (hFc) and its junction to the ECD
The experiment in a line: ELISA, coated cyno PD-1ECD-hFc; antibody 1 nM. As for the experimental part: as §1

Assay [21] concerns the target T7, cyno PD-1^ECD-hFc protein. As to the kind of experiment: ELISA, coated cyno PD-1ECD-hFc; antibody 10 nM. Here is the method:
as §1

The target in assay [22] is T7, cyno PD-1^ECD-hFc protein. As to the kind of experiment: ELISA, coated cyno PD-1ECD-hFc; antibody 0.1 nM. Here is the method:
as §1

Assay [23] deals with T7, cyno PD-1^ECD-hFc protein. As to the kind of experiment: ELISA, coated cyno PD-1ECD-hFc; antibody 100 nM. Here is the method: as §1
The target in assay [24] is T7, cyno PD-1^ECD-hFc protein. The experiment in a line: ELISA, coated cyno PD-1ECD-hFc; antibody 0.01 nM. Here is the method: as §1
In assay [25] the target is T3, CD28. The experiment in a line: ELISA, coated protein 1 ug/mL; antibody concentration not stated. As for the experimental part:
as §1

The target of assay [26] is T5, ICOS. Described as above. Here is the method: as §1
The target of assay [27] is T6, CTLA4. The description is as above. As for the experimental part: as §1

T1 sequence (Q15116 25-167): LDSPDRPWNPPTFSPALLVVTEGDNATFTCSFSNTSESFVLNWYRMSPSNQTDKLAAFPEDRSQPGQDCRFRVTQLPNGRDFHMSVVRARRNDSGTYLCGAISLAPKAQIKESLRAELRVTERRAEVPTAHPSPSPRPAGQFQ
T7 sequence (B0LAJ3 entry or part of it limits assumed): as the sequence (Q15116 25-167) above, with D2E, P10A, V19L, T35A, Q75R counted along it
T2 sequence (Q15116 25-288 limits assumed): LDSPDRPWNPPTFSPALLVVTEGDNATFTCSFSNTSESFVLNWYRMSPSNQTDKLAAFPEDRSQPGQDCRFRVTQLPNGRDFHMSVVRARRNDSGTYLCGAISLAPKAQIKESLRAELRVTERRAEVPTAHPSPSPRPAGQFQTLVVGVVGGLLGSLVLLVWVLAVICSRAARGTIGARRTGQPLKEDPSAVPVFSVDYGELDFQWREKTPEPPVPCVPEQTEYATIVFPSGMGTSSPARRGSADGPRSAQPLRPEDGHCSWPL
T3 sequence (P10747 19-152 limits assumed): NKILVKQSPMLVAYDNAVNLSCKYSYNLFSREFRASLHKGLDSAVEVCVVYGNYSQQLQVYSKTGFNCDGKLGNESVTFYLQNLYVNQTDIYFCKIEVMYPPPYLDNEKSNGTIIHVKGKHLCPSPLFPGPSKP

B1: chimeric anti-PD-1 antibody 204C5E12 (antibody, V domains shown)
VH: QVQLVESGGGVVQPGRSLRLSCAASGFSFSYYGMHWVRQAPGKGLEWVAVIWYDGSNKYYADSVKGRFTISRDNSKNTLYLQMNSLRAEDTAVYYCASGITLVRGADYYYNYDMDVWGQGTTVTVSS
VL: not shown
notes: Purified from hybridoma of Harbour H2L2 mice: human variable regions, rat constant regions
In the case of B1, the OD450 nm in assay [1] came to 2.87; in assay [2], 2.84; in [3], 2.13; in [4], 2.77; in [5], 0.68; in assay [7], 0.48. In addition, the OD450 nm in assay [9] and in assay [12] was 0.43 throughout. Further, the Mean fluorescence intensity in assay [6] is 5; in assay [8], 160; in assay [10], 2.9; in assay [11], 1490; in [13], 21.4; in [14], 986. For the same molecule, the Mean fluorescence intensity in assay [15] and in [16] was 3 in each case.

B2: chimeric anti-PD-1 antibody 223G6B5 (antibody, V domains shown)
VH: QVQLQESGPGLVKPSETLSLTCAVSGHSIRGSYFWGWIRQPPGRGLEWIGSIYHSGSTYTNPSLKSRATISVDTSKNQFSLKLNSVTAADTAVYYCARDLDIATTRDYWGQGTLVTVSS
VL: DIQLTQSPSFLSASVGDRVTIICRASQGINNYLAWYQQKPGKAPKLLIYAASTLQSGVPSRFSGSGSGTEFTLTISSLQPEDFATYYCQQLDSYPRTFGQGTKVEIKR
notes: as for B1
In the case of B2, the binding result in the assay with CD28 [17], with B7-1, in the assay with ICOS [18] and in the assay with CTLA4 [19] was “no binding” throughout. Moreover, the OD450 nm in [20] came out at 2.61; in assay [21], 2.74; in [22], 1.28; in [23] it was 2.7; in assay [24], 0.342; with CD28 [25], 0.166. Further, the results for the OD450 nm with ICOS [26] and with CTLA4 [27] were 0.14 and 0.106, respectively.

B3: chimeric anti-PD-1 antibody 226C3A7 (antibody, V domains shown)
VH: QVQLQQSGPGLVNPSQTLSLTCAISGDSVSSNSGAWNWIRQSPSRGLEWLGRTYYRSKWYNDYGISVQSRITINPDTSKNHFSLQLNSVTPEDTAVYYCARDPYYYGSGSYFDYWGQGTLVTVSS
VL: EIVMTQSPATLSVSPGERVTLSCRASLSVNSNLAWYQQKPGQAPRLLIYDTSTRATGVPARFSGSGSGTEFTLTISSLQSEDFAVYYCQQYHYWPLTFGGGTKVEIK
notes: as for B1
B3: the OD450 nm came out at 2.86 in assay [1]; 2.86 in assay [2]; 2.54 in [3]; 2.83 in assay [4]; 0.9 in assay [5]; 0.45 in assay [7]. The OD450 nm in assay [9] turned out to be 0.4; in [12] it was 0.39. For the same molecule, the Mean fluorescence intensity in [6] turned out to be 5.2; in assay [8], 203; in [10] it was 3.2; in assay [11], 825; in assay [13], 22.9; in [14], 826. Moreover, the results for the Mean fluorescence intensity in assay [15] and in assay [16] were 3.4 and 4.1, respectively.

(Values after patent publication US20180214548A1 (SHANGHAI YUNYI HEALTHCARE AND TECHNOLOGY, published 2018).)
